The series is described as follows: yeast display, Sf9 membrane polyspecificity reagent, FACS + sequencing; frameworks hold sequencing errors. In short, it runs like this: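 In a synthetic yeast display library (Saccharomyces cerevisiae BJ5465), nanobody expression was induced with galactose for 36–48 hours. FACS gates were set low and high (top ~1%) using anti-HA fluorescence for expression and streptavidin fluorescence for binding of the Sf9 membrane reagent. Each polyreactivity label is drawn from the gate of origin.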
On to “QVQLVESGGGLVQAGGILRISCAASGRNLSRNAMGWYRQAPGKERELVAAISRSGSRTYYADSVKGRFTISRDNAKNSVYLLMNSLKPEDTAVYYCNAESYLSGWWYDYWGQGTQVTVSS”, for which the “polyreactivity (PSR sort gate)” value is “high polyreactivity”. On to “QVQLVESGGGLVQAGGILRISSDSSGSIFTFYAMGCYRQEPGKERELFAAISYGGGITYYADSVKGRFSISRDNAKNTVYLQMNSLKPEDTAVFYCAGDDGYYNLYFDYDYWGQGTQVTVSS”, for which the “polyreactivity (PSR sort gate)” value is “low polyreactivity”. Next, “QVQLVESGGGLVQAGGILRLICAASGFIFLGYALGWYRQAPGTERELVAAISSDSDKNYADSVKGRFTISRDNAKNTVYLQMNILKPEDTAVYYCIADIDSYREMDYWGQGTQVTVSS”: “low polyreactivity”; “QVQLVESGGGLVQAGGILRLRCAASGLTFVYYAMGWYRQAPGKERELVAGITSRGGRTYYADSVKGRFTISRDNAKNTVYLQMNSLKPEDTAGYYCNAVDRYNRFDYWGQGTQVTVSS”: “high polyreactivity”. In the case of “QVQLVESGGGLVQAGGILRLSCAARTFVNYDMGWTRQAHGKERELVAAISSSGGSTNYADSVKGRFTISRDNAKNTVYLQMKSLKPEDTAVYYCAAASRRQVIPAMYYWGQGTQVTVSS” it was “high polyreactivity”; in that of “QVQLVESGGGLVQAGGILRLSCAASGFIFTYYAKGWYRQAPGKEMELVAAISWSGGSTYYADSVKGRFTISRDNAKNTVYLLMNSLKPEDTAVYYCAVDLHYSRGPRDAQYRYYYWGHGTQVTVSS”, “high polyreactivity”; in that of “QVQLVESGGGLVQAGGILRLSCAASGFILWYYTMGWSRQAPGKERELVAAISRGGTTYYADSVKGRFTISRDTAKNTVYLQMYSLKPEDTAVYYCNAPYNTHGIVLYDYWGQGTQVTVSS”, “low polyreactivity”. Next, “QVQLVESGGGLVQAGGILRLSCAASGFTIYYYAIGWYRQAPGKERELVASITSGGSTYYADSVKGRFTISRDNAKNSVYLQMNSLKPEDTAVYYCAKTRFHYKEGDYWGQGTQVTVSS”: “low polyreactivity”; “QVQLVESGGGLVQAGGILRLSCAASGGIIAINAMGWYRQAPGKERELVAAISWGDGITYYADSVKGRFTISRDNEKNTVYLQMNSLKPEDTAVYYCAADEDEYRGGDESWGQGTQVTVSS”: “low polyreactivity”; “QVQLVESGGGLVQAGGILRLSCAASGGTFTYNAMGWYRQAPGKERELVAAITNGGGSTYYADSVKGRFTISRDNAKNTVYLQMNSLKPEDTAVYYCAARWWYYYTEYDYWGQGTQVTVSS”: “low polyreactivity”. On to “QVQLVESGGGLVQAGGILRLSCAASGILVYNAMGWYIQAPGTERVLVAAISARGGRTYYADSVKGRFTISRDNAKNTVNLQMNSLKPEDTPVYYCATLETTGVNYWGQGTQVTVSS”, for which the “polyreactivity (PSR sort gate)” value is given as “high polyreactivity”. “QVQLVESGGGLVQAGGILRLSCAASGITFPANAMGWYRQAPGKQRELVAAISSYGGSTYYADSVKGRFTISRDNAKNNVYFQMNSLKPEDTAVYYCAAYLSSLGRKYYYWGQGTQVTVSS”: the “polyreactivity (PSR sort gate)” value is “high polyreactivity”. Next, “QVQLVESGGGLVQAGGILRLSCAASGRIFFPNAMGWFRQAPGKERELVASISRGTSTNYADSVKGRVTISRDNAKNTVYLQMHSLKPEDTAVYYCAAKSAPYFGGRSRYAYWGQGTQVTVSS”: “low polyreactivity”; “QVQLVESGGGLVQAGGILRLSCAASGRIFGGNAMGWYRQSPGKEREFVAAITWRGGTTYYADSVKGRFTISRDNAKNTVYLQMNSLKPEDTAVYYCNAMPYTRNTGYDYWGQGTQVTVSS”: “high polyreactivity”; “QVQLVESGGGLVQAGGILRLSCAASGRIFSRYAMGWYRQAPGKERELVAAISSSGTTTYYADSVKARFTISRDNAKNTVYLQMNSLKPEDTAVYYCAVEDRWYGPGYEYWGQGTQVTVSS”: “high polyreactivity”. In the case of “QVQLVESGGGLVQAGGILRLSCAASGRIFYGYAMGWYRQAPGKERELVAAISSDGRTYYADSVKGRFTISRDNAKNTVYLQLNSLKPEDTAVYYCAKVPYSGYDYVYWDPSIFEYDYWGQGTQVTVSS” it was “low polyreactivity”; in that of “QVQLVESGGGLVQAGGILRLSCAASGRILTTNAMGWYRQAPGKERELVAAITRSGGRTYYADSVKGRFTISRDNAKNTVYFQMNSLKPEDTAVYYCNAVTTRLSLYDYWGQGTQVTVSS”, “high polyreactivity”; in that of “QVQLVESGGGLVQAGGILRLSCAASGRTFERNAMGWYRQSPGKEREFVAAITEIGGSTYYADSVKGRFTISRDNAKNTVYLQMNSLKPEDTAVYYCAKDGTYSPYDYWGQGTQVTVSS”, “low polyreactivity”.

In the case of “QVQLVESGGGLVQAGGILRLSCAASGSIFAYYAMGWYRQAPGKERELVAAIDSGGGTSYADSVKGRFTISRDNAKNTVYLQMNRLKPEDTAVYYCNAAGYVVYYRIIAFGYWGQGTQVTVSS”, the “polyreactivity (PSR sort gate)” value is reported as “low polyreactivity”. “QVQLVESGGGLVQAGGILRLSCAASGSIFPGYAMGWYRQAPGKERELVAAISTSGGSTYADSVKGRFTISRDNAKNTVYLQMNSLKPEDTAVYYCAATYTYTSPVYYSLDGPWPYDYWGQGTQVTVSS”: the “polyreactivity (PSR sort gate)” value is recorded as “low polyreactivity”. In the case of “QVQLVESGGGLVQAGGILRLSCAASGSIFPYYAMGWYRQAPGKERELVAGITSGTRTNYADSVKGRFTISRDNAKNTVYLQMNSLKPEDTAVYYCAKEAHIWGYPDYEYWGQGSQVTVSS” it was “high polyreactivity”. In the case of “QVQLVESGGGLVQAGGILRLSCAASGSIFQRYVMGWYRQAPGKAREFVAGITRSGGSTYYADSVKGRFTISRDNAKNTVYLPMNSQKPEDTAVYNCAAALVRGTYKYDYWGQGTQVTFSS” it was “high polyreactivity”; in that of “QVQLVESGGGLVQAGGILRLSCAASGSNFRRNVMWYRQEPGKERELVAGISWRGTSTYYADSVNGRFTISRDNAKNTVYLQMNRLKPEDSAVYYCAALPFVYHRVNEFDYWGQGTQVTVSS”, “high polyreactivity”.

In the case of “QVQLVESGGGLVQAGGILRLSCAASGSTFGENAMGWYRQSPGKERELVAAISRASSTDYADSVKGRFTISRDNAKNTVYLQMNSLKPEDTAVYYCAVSIFGSFNYDFYSWGQGTQVTVSS”, the “polyreactivity (PSR sort gate)” value is reported as “low polyreactivity”. Next, “QVQLVESGGGLVQAGGILRLSCAASGSTFTYNVMGWYRQAPGKERYLVAAISWSGGSTFYADSVKGRFTISRDNAKNTVYLQMNRLKPEDTAVYYCNKDHLVYPSEFYYWGQGTQVTVSS”: “low polyreactivity”; “QVQLVESGGGLVQAGGILRLSCAASGSTLRTNAMGWYRQEPGKDRELVAAISTRGSSTYYADSVKGRFTISRDNAKNTVYLQMNSLQPEDTAVYYCNTAWGPRRGVNVAFDYWGQGTHVTVSS”: “low polyreactivity”; “QVQLVESGGGLVQAGGILRLSCAAYGFTFYSYSMGWYRQAPGKEREFVAAGSTYYADSVKGRFTISRDNAKNTVYLQMNSLKPEDTAVYYCAADPWIYVQSYGFWGQGTQVTVSS”: “low polyreactivity”.

For the sequence “QVQLVESGGGLVQAGGILRLSCAAYGRTFSRYGMGWYRHAPGKERQLVADITWRGDSTYYADSVKGRFTISRDNAKNTVYLQMNSLKPEDTAVYYCAVYWRSLYYGYTYDYWGQGTQVTLSS”, the “polyreactivity (PSR sort gate)” value is reported as “high polyreactivity”. Next, “QVQLVESGGGLVQAGGILRLSCASSGSIFGYYAMGWYRQAPGKERELVAAIDSGGGSTYYADSVKERFTISRDNAKNTVYFQMNSLKPEDTAVYYCAAVSYSYPSLLYEYWGQGTQVTVSS”: “low polyreactivity”. Take “QVQLVESGGGLVQAGGILRLSCASSGSIFVTFAMGWYRQAPGTEREFVAAINWIGGSTYYADSVKGRFTISRDNAKNTVYLQMNSLKPEDTAVYDCGKRYYRRYDYWGQGTQVTVSS”: the “polyreactivity (PSR sort gate)” value was “high polyreactivity”.

For the sequence “QVQLVESGGGLVQAGGILRLSCASSRFTFTWYAMGWYRPAPGKERELVAAISLSGDRTYYADSVKGRFTISRDNAKNTVYLQMNSLKPEDTAVYYCVFAFEYYYWGQGTQVTVSS”, the “polyreactivity (PSR sort gate)” value is listed as “low polyreactivity”. Next, “QVQLVESGGGLVQAGGILRLSCDASGRIFRANAMGWYRQAPGKERELVASITYSGGSTYYADSVKGRFTISRDNAKNTVYLPMNSLNPEDTAVYYCARAGISSGGYYYWGQGTQVTVSS”: “low polyreactivity”; “QVQLVESGGGLVQAGGILRLSCTASGFTLGHYAMGWYRQSPGKERELVAVITSGSSTNYADSVKGRFTISRDNAKNTVYLQMNSLKPEDTAVYYCAAEDQFFKWLYYFWGEGTQVTVSS”: “low polyreactivity”. “QVQLVESGGGLVQAGGILRLSSAASGLILPDYAMGWYRQAPGKERELVAAISEYAGSTYYADSVKGRFTISRDNAKNTVYLQMNSLKPEDTAVYYCAAEVWFYSWYFWYYDGEDYWGQGTQVTVSS”: the “polyreactivity (PSR sort gate)” value is reported as “high polyreactivity”. Next, “QVQLVESGGGLVQAGGILRLSWAASGFTFDSNAMGWYRQAPGKERELVASISSSGSTNYADCVKGRFTISRDNAKNTVDFQMNSLKPEDTAVYSCAAESRYPFIYEYWGQGTEVTVSS”: “low polyreactivity”. As for “QVQLVESGGGLVQAGGILRLTCAASGSIFGTYAMGWYRTPPGKERELVSAITRRSGRTYYADSVKGRFTISRDNAKNTVNLQMNCLKQEDTAVYYCAKRPVIDDDYWGQGTQETVSS”, the “polyreactivity (PSR sort gate)” value is given as “high polyreactivity”. For “QVQLVESGGGLVQAGGILRVSCAASGSTFRRYAMGWSRQAPGKERELVAAIRQRGTSTYYADSVKGRFTISRDNAKNTVYLQMNSLKPEDTAVYYCAAGPSLWLFNSWGQGTQVTVSS”, the “polyreactivity (PSR sort gate)” value is “high polyreactivity”. On to “QVQLVESGGGLVQAGGILSLSCAASGIISIYYVMGWYRQAPGKERELVAAITSSGARTYYADSVKGRFTISRDNAKNTVYLQMNSLKPEDTAVYYCAAKAVHLAGYDYWGQGTQVTVSS”, for which the “polyreactivity (PSR sort gate)” value is reported as “high polyreactivity”. Next, “QVQLVESGGGLVQAGGILSLSCAASGRIFVYYMGWYRQAPGKESELVAAISFGGGSTYYADSVKGRFTISRDNAKNTVYLQMNSLKPEDTAVYYCNADGDDLDWNYYLVQYDSWGQGTQVTVSS”: “low polyreactivity”. Next, “QVQLVESGGGLVQAGGNLRLSCASSGIIFFKYAMGWYRPEPGKERELVAAITSGGSTYYADSVKWRFTISRDNAKKTVYLQMNSLKPEDTAVYYCAAAGGRFIRYCYWGQGTQVTVSS”: “high polyreactivity”. In the case of “QVQLVESGGGLVQAGGPLRLSCAASGRIVWNAMGWYRQAPGKEREFVASITWSVGSTYYADSVKGRFTISRDNAKNTVYLQMNSLKPEDTAVYYCAADSYSGYYYWGQGTQVTVSS” it was “high polyreactivity”.

(Values after the nanobody polyreactivity screen of Harvey et al. (2022).)
